Earlier results on one substance are cited in article PMC5021969.

The target in the data set is CXCL1 (Mus musculus) (UniProt P12850).

For orientation: Kd means the constant that tells how readily two partners part at equilibrium. CXCL1 (from UniProt P12850): the Kd was 10 µM.
